Experimental data from article PMC5457145 (Science Advances, 2017).
Positions count from the first letter of the chain named. Names and notes keep the numbering of the source. Each block holds one binder with its values, some of them ahead of it. Ends that are not written are not given here.

Assays:
His6Sumo-tagged TPR2 TPD [1] = target: T1, His6Sumo-tagged TPR2 TPD (rice, UniProt Q5NBT9 1-209); experiment: AlphaScreen or HTRF
T1 sequence (looked up): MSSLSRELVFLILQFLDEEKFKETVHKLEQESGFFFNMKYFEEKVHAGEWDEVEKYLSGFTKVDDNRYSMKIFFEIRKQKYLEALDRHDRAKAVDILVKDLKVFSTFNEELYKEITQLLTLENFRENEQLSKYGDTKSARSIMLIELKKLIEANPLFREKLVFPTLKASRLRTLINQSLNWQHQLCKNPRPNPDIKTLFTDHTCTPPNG

crystal structure = target: the molecule itself; experiment: crystal structure
[2] = target: T2, His6Sumo-TPR2 TPD L179A/I195A (rice, UniProt Q5NBT9 1-209, L179A | I195A); experiment: AlphaScreen or HTRF
T2 sequence (looked up): T1 sequence (looked up) with L179A, I195A

[3] = target: T3, His6Sumo-TPR2 TPD L111A/L130A (rice, UniProt Q5NBT9 1-209, L111A | L130A); experiment: AlphaScreen or HTRF
T3 sequence (looked up): T1 sequence (looked up) with L111A, L130A

[4] = target: T4, His6Sumo-TPR2 TPD N176H/K71A (rice, UniProt Q5NBT9 1-209, N176H | K71A); experiment: AlphaScreen or HTRF
T4 sequence (looked up): T1 sequence (looked up) with K71A, N176H

His6Sumo-TPR2 TPD W181A = target: T5, His6Sumo-TPR2 TPD W181A (rice, UniProt Q5NBT9 1-209, W181A); experiment: AlphaScreen or HTRF
T5 sequence (looked up): T1 sequence (looked up) with W181A

[5] = target: T6, His6Sumo-TPR2 TPD N176H/Y68A (rice, UniProt Q5NBT9 1-209, N176H | Y68A); experiment: AlphaScreen or HTRF
T6 sequence (looked up): T1 sequence (looked up) with Y68A, N176H

His6Sumo-tagged TPR2 TPD [6] = target: T1, His6Sumo-tagged TPR2 TPD; experiment: AlphaScreen or HTRF; remark: listed apart in the source
His6Sumo-TPR2 TPD L198A = target: T7, His6Sumo-TPR2 TPD L198A (rice, UniProt Q5NBT9 1-209, L198A); experiment: AlphaScreen or HTRF
T7 sequence (looked up): T1 sequence (looked up) with L198A

[7] = target: T8, His6Sumo-TPR2 TPD N176H/Y68R (rice, UniProt Q5NBT9 1-209, N176H | Y68R); experiment: AlphaScreen or HTRF
T8 sequence (looked up): T1 sequence (looked up) with Y68R, N176H

[8] = target: T9, His6Sumo-TPR2 TPD N176H/R67A (rice, UniProt Q5NBT9 1-209, N176H | R67A); experiment: AlphaScreen or HTRF
T9 sequence (looked up): T1 sequence (looked up) with R67A, N176H

His6Sumo-TPR2 TPD N180A = target: T10, His6Sumo-TPR2 TPD N180A (rice, UniProt Q5NBT9 1-209, N180A); experiment: AlphaScreen or HTRF
T10 sequence (looked up): T1 sequence (looked up) with N180A

IC50 (His6Sumo-tagged TPR2 TPD [1]): 14.3 µM
Binder: DNLIYADLNLQ (peptide, UniProt Q2RBP2 794-804, looked up) [D53 EAR-2 peptide L799A]

fold increase of the strength of the interaction against wild-type EAR-2 (His6Sumo-tagged TPR2 TPD [1]): > 3 fold
Binder: DNLIYLDLNLA (peptide, UniProt Q2RBP2 794-804, looked up) [D53 EAR-2 peptide Q804A]

B1: TPR2 TPD, TPR2(1–209), untagged (domain or fragment, rice, UniProt Q5NBT9 1-209, looked up)
chain: T1 sequence (looked up)
stoichiometry N (crystal structure): 4

B2: TPR2 TPD L111A/L130A, untagged (domain or fragment, rice, UniProt Q5NBT9 1-209, looked up)
chain: T1 sequence (looked up) with L111A, L130A
binding result (crystal structure): binds

binding result [2]: binds
binding result [3]: binds
binding result [4]: binds
binding result (His6Sumo-TPR2 TPD W181A): binds
binding result [5]: binds
binding result (His6Sumo-tagged TPR2 TPD [6]): binds
binding result (His6Sumo-TPR2 TPD L198A): binds
binding result [7]: binds
binding result [8]: binds
binding result (His6Sumo-TPR2 TPD N180A): binds
Binder: DNLIYLDLNLQDWDD (peptide, UniProt Q2RBP2 794-808, looked up, also: biotinylated, site not given here) [Biotinylated D53 EAR-2 peptide, D53(794–808)]
